Data taken from patent US20140030270A1 (Amgen, published 2014).

Columns and labels:
human PCSK9 (wild-type) = human PCSK9 (wild-type) (human, UniProt Q8NBP7 31-692, biotinylated in the ELISA formats (sites not given); untagged and unlabelled in Biacore/KinExA); test: cell-based or functional assay
human PCSK9 D374Y mutant = human PCSK9 D374Y mutant (human, UniProt Q8NBP7 31-692, biotinylated in the LDLR binding ELISAs (sites not given)); test: cell-based or functional assay

B1: 11F1 anti-PCSK9 antibody (antibody, V domains shown)
VH: EVQLVESGGGLVQPGGSLRLSCAASGFTFSNYWMSWVRQAPGKGLEWVASIKQDGSEKYYVDSVKGRFAISRDNAKNSLFLQMNSLRAEDTAVYYCARDLVLMVYDIDYYYYGMDVWGQGTTVTVSS
VL: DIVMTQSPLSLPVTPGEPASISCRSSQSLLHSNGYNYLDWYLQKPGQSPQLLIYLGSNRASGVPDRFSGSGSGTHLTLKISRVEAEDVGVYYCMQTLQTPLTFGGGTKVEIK
Human PCSK9 (wild-type)
  EC50, block of WT PCSK9-mediated decrease in LDL uptake in HepG2 cells (BODIPY-LDL): 124 nM
Human PCSK9 D374Y mutant
  EC50, block of D374Y PCSK9-mediated decrease of LDL uptake in HepG2 cells (BODIPY-LDL): 35.3 nM
